This is an account of results in patent publication US20250084176A1 (F STAR BETA, published 2025).

As a reminder, the Kd is the constant that tells how readily two partners part at equilibrium. A low value points to higher affinity. What is called koff is the first-order rate constant of dissociation. Broadly, the kon is the second-order rate constant of association.

Assay [1] concerns the target T1, hCD137-mFc-Avi (human; mouse, UniProt Q07011 24-186, one biotin on the Avi sequence of each monomer (BirA); unbiotinylated in the SPR of Example 5.6).
T1 construct: Made in-house in HEK293-6E; also called human CD137-mFc-Avi; dimeric human CD137; not shown: mouse IgG2a Fc domain (mIgG2a Fc)
Kind of assay: SPR (Biacore), mAb2 captured by anti-human Fab, antigen in solution, 1:1 Langmuir. The method, then: (§1) An anti-human Fab capture antibody was immobilised on all four flow cells of a CM5 series S chip (GE Healthcare #BR-1005-30) to an average surface density of 6000 RU following the manufacturer's recommendations (GE Healthcare, human Fab capture Kit, #28958325). IEach mAb² was captured to approximately 150 RU by injecting a 3 μg/ml solution of mAb² diluted in HBS-EP+ buffer (GE Healthcare #BR1006-69) for 60 seconds at 30 μl/min. Then different concentrations of human, cyno or mouse CD137 antigen (unbiotinylated human, cyno or mouse CD137-mFc-Avi or human CD137-Avi-His) in HBS-EP+ buffer were flowed over the chip for 3 min at 60 μl/min and then allowed to dissociate for 10 minutes. After each antigen concentration the chip was regenerated by infecting 10 mM glycine pH 2.1 at a flow rate of 30 μl/min for 30 seconds. Buffer HBS-EP+ was injected before the highest concentration of antigen and after the lowest concentration of antigen for reference subtraction, and one of the concentrations at random was repeated twice. The binding kinetics were fit with a 1:1 Langmuir model to generate equilibrium binding constants (KD) for each sample. Data analysis was performed with BiaEvaluation software version 3.2.
Background: Surface plasmon resonance follows binding to a sensor surface in real time, without labels.

For the next assay, the target named is T2, cCD137-mFc-Avi (cynomolgus; mouse, one biotin on the Avi sequence of each monomer (BirA); unbiotinylated in the SPR of Example 5.6).
T2 construct: also called cyno CD137-mFc-Avi; dimeric cynomolgus CD137; not shown: mouse IgG2a Fc domain (mIgG2a Fc)
T2 chain: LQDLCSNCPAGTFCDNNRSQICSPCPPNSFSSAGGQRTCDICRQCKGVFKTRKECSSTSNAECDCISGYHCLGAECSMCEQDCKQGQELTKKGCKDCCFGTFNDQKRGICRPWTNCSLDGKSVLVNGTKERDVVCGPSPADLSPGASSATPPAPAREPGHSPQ
The description is as above. The method, then:
as §1

The target in assay [2] is T3, human CD137, full length, on cells (human, UniProt Q07011 24-255). Description: cell-based or functional assay.
Assay [3] concerns the target T4, mouse CD137, full length, on cells (mouse, UniProt P20334 24-256). Description: cell-based or functional assay.
The target of assay [4] is T1, hCD137-mFc-Avi. Kind of assay: SPR (Biacore T200), mAb2 captured by anti-human Fab, hCD137-mFc in solution, 1:1 Langmuir. The method, then:
For the hCD137-mFc-Avi antigen the following method was used: an anti-human Fab molecule was immobilised on a CM5 chip to a surface density of between 9,000 and 11,000 response units (RU). The antibodies were diluted to 4 μg/ml in HBS-EP buffer and captured by the anti-Fab molecule with a flow rate of […].
For mCD137-mFc-Avi binding kinetic determination, a different approach was used. […] The analysis of the data was done using the Biacore T200 evaluation software. Curves were subtracted against a blank flow cell and fitted using a 1:1 Langmuir binding model with mass transfer, setting RI to zero as constant and Rₘₐₓ to local.

The target of assay [5] is T4, mouse CD137, full length, on cells. Kind of assay: cell-based or functional assay. The source holds these as a separate data set.
Assay [6] deals with T3, human CD137, full length, on cells. Description: cell-based or functional assay. This is another data set of the same source.
In the next assay the target is human CD40 (human, UniProt P25942 21-193). Description: SPR (Biacore T200), receptor amine-coupled to CM5 chip. The method, then:
(§2) The specificity of the anti-human CD137 Fcabs for human CD137 compared to other related TNFSFR family members was tested. 8 of the Fcabs were tested in mock mAb² (HeID1.3) format and measured by SPR in a Biacore T200 (GE Healthcare) by testing for binding to other human TNFRSF receptors: CD40, OX40 and GITR. Amine coupling (amine coupling kit, GE Healthcare, BR-1000-50) was used to coat human CD40, GITR and OX40 to approximately 1000 RU in Biacore CM5 chips (GE Healthcare, cat no 29149603). […] The chip was regenerated by injection of 10 mM glycine pH 2.5 for 12 s at 30 μl/min. Antibodies specific to the different TNFRSF members were used as positive controls to verify Biacore chip coating. Data was double reference subtracted and analysed using BIAevaluation 3.2 software.

A further assay has as its target T5, human GITR (human, UniProt Q9Y5U5 26-161, limits assumed).
T5 sequence (looked up): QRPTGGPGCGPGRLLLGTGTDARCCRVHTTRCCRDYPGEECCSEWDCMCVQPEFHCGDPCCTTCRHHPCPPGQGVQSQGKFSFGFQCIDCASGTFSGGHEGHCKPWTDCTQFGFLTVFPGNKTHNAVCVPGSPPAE
Described as above. How it is done: as §2

The target in a further assay is T6, human OX40 (human, UniProt P43489 29-216, limits assumed).
T6 sequence (looked up): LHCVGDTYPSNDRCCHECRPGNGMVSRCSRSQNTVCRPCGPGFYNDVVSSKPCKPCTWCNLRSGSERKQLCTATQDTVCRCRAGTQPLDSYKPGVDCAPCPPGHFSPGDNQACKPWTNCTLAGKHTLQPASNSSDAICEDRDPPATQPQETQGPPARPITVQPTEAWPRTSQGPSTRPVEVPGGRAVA
The assay is described as above. How it is done:
as §2

A further assay concerns the target T7, hCD137-Avi-His (human, UniProt Q07011 24-186, single biotin on the Avi sequence (BirA); unbiotinylated in the SPR of Example 5.6).
T7 construct: also called human CD137-Avi-His; monomeric human CD137
Kind of assay: SPR (Biacore), mAb2 captured by anti-human Fab, antigen in solution, 1:1 Langmuir. How it is done:
as §1

Assay [7] has as its target T3, human CD137, full length, on cells. Kind of assay: cell-based or functional assay. The source holds these as a separate data set.

T4 sequence (P20334 24-256): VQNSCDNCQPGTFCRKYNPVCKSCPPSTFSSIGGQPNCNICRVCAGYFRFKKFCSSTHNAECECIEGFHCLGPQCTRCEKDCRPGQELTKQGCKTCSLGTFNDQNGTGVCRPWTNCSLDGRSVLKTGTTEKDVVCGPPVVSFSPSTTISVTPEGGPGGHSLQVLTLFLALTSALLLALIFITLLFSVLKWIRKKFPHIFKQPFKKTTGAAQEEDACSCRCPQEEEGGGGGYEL
T3 sequence (Q07011 24-255): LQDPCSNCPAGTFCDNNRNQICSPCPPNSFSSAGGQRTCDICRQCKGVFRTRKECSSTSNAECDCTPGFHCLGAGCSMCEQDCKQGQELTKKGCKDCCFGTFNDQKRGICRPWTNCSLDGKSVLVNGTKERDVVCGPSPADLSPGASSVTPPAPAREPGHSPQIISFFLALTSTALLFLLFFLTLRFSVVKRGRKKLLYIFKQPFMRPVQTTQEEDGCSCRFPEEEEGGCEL
T1 sequence (Q07011 24-186): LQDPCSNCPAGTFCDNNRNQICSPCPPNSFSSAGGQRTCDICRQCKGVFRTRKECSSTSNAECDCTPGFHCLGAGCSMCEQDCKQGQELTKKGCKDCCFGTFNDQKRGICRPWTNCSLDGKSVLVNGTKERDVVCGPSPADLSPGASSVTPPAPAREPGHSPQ
T7 sequence (Q07011 24-186): as above
Chain of human CD40 (P25942 21-193 limits assumed): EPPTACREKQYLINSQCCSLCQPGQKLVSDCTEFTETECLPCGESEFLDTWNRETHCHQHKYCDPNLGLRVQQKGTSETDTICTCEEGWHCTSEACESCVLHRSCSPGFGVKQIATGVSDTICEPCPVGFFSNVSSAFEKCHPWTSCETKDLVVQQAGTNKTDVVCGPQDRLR

B1: FS22-053/HelD1.3 (bispecific antibody, human IgG1, kappa)
heavy: QVQLQESGPGLVRPSQTLSLTCTVSGSTFSGYGVNWVRQPPGRGLEWIGMIWGDGNTDYNSALKSRVTMLVDTSKNQFSLRLSSVTAADTAVYYCARERDYRLDYWGQGSLVTVSSASTKGPSVFPLAPSSKSTSGGTAALGCLVKDYFPEPVTVSWNSGALTSGVHTFPAVLQSSGLYSLSSVVTVPSSSLGTQTYICNVNHKPSNTKVDKKVEPKSCDKTHTCPPCPAPELLGGPSVFLFPPKPKDTLMISRTPEVTCVVVDVSHEDPEVKFNWYVDGVEVHNAKTKPREEQYNSTYRVVSVLTVLHQDWLNGKEYKCKVSNKALPAPIEKTISKAKGQPREPQVYTLPPSRDELNPPYLFSNQVSLTCLVKGFYPSDIAVEWESNGQPENNYKTTPPVLDSDGSFFLYSKLTVYYNRWQDGNVFSCSVMHEALHNHYTQKSLSLSPG
light: DIQMTQSPASLSASVGETVTITCRASGNIHNYLAWYQQKQGKSPQLLVYNAKTLADGVPSRFSGSGSGTQYSLKINSLQPEDFGSYYCQHFWSTPRTFGGGTKLEIKRTVAAPSVFIFPPSDEQLKSGTASVVCLLNNFYPREAKVQWKVDNALQSGNSQESVTEQDSKDSTYSLSSTLTLSKADYEKHKVYACEVTHQGLSSPVTKSFNRGEC
notes: Mock mAb^2, IgG1 without LALA; also called FS22-053/HeID1.3
For the molecule B1, the Kd is 38 nM with hCD137-mFc-Avi [1] and 34 nM with cCD137-mFc-Avi. Further, the “NF-kB luciferase reporter (HEK.FRT.luc.hCD137), signal with against without Protein L” value in assay [2] is at least 10 fold.

B2: FS22-053-017/HelD1.3 (bispecific antibody, human IgG1, kappa)
heavy: QVQLQESGPGLVRPSQTLSLTCTVSGSTFSGYGVNWVRQPPGRGLEWIGMIWGDGNTDYNSALKSRVTMLVDTSKNQFSLRLSSVTAADTAVYYCARERDYRLDYWGQGSLVTVSSASTKGPSVFPLAPSSKSTSGGTAALGCLVKDYFPEPVTVSWNSGALTSGVHTFPAVLQSSGLYSLSSVVTVPSSSLGTQTYICNVNHKPSNTKVDKKVEPKSCDKTHTCPPCPAPELLGGPSVFLFPPKPKDTLMISRTPEVTCVVVDVSHEDPEVKFNWYVDGVEVHNAKTKPREEQYNSTYRVVSVLTVLHQDWLNGKEYKCKVSNKALPAPIEKTISKAKGQPREPQVYTLPPSRDELNPPYLFSNQVSLTCLVKGFYPSDIAVEWESNGQPENNYKTTPPVLDSDGSFFLYSKLTVYHWRWLEGNVFSCSVMHEALHNHYTQKSLSLSPG
light: DIQMTQSPASLSASVGETVTITCRASGNIHNYLAWYQQKQGKSPQLLVYNAKTLADGVPSRFSGSGSGTQYSLKINSLQPEDFGSYYCQHFWSTPRTFGGGTKLEIKRTVAAPSVFIFPPSDEQLKSGTASVVCLLNNFYPREAKVQWKVDNALQSGNSQESVTEQDSKDSTYSLSSTLTLSKADYEKHKVYACEVTHQGLSSPVTKSFNRGEC
notes: Mock mAb^2, IgG1 without LALA; also called FS22-053-17; FS22-053-017/HeID1.3
B2: in assay [3], the “IL-2 release, mouse CD137 DO11.10 T cell activation assay, Protein L: +XL EC50” value was 16.7 nM and the “IL-2 release, mouse CD137 DO11.10 T cell activation assay, Protein L: +XL Emax” value was found to be 41000 pg/mL. Moreover, in the assay with hCD137-mFc-Avi [4], binding was characterised by a dissociation constant (Kd) of 4.59 nM, the off-rate constant (koff) stood at 0.000406 s⁻¹ and the kon was 88500 M⁻¹ s⁻¹. In addition, the “IL-2 release, mouse CD137 DO11.10 T cell activation assay: EC50 against that of FS22-053-014” value in assay [5] is around 8 fold. The “IL-2 release, human CD137 DO11.10 T cell activation assay, Protein L: +XL EC50” value in assay [6] was 0.82 nM.

B3: FS22-172-003/HelD1.3 (bispecific antibody, human IgG1, kappa)
heavy: QVQLQESGPGLVRPSQTLSLTCTVSGSTFSGYGVNWVRQPPGRGLEWIGMIWGDGNTDYNSALKSRVTMLVDTSKNQFSLRLSSVTAADTAVYYCARERDYRLDYWGQGSLVTVSSASTKGPSVFPLAPSSKSTSGGTAALGCLVKDYFPEPVTVSWNSGALTSGVHTFPAVLQSSGLYSLSSVVTVPSSSLGTQTYICNVNHKPSNTKVDKKVEPKSCDKTHTCPPCPAPELLGGPSVFLFPPKPKDTLMISRTPEVTCVVVDVSHEDPEVKFNWYVDGVEVHNAKTKPREEQYNSTYRVVSVLTVLHQDWLNGKEYKCKVSNKALPAPIEKTISKAKGQPREPQVYTLPPSRDELPYIIPPYNQVSLTCLVKGFYPSDIAVEWESNGQPENNYKTTPPVLDSDGSFFLYSKLTVGADRWLEGNVFSCSVMHEALHNHYTQKSLSLSPG
light: DIQMTQSPASLSASVGETVTITCRASGNIHNYLAWYQQKQGKSPQLLVYNAKTLADGVPSRFSGSGSGTQYSLKINSLQPEDFGSYYCQHFWSTPRTFGGGTKLEIKRTVAAPSVFIFPPSDEQLKSGTASVVCLLNNFYPREAKVQWKVDNALQSGNSQESVTEQDSKDSTYSLSSTLTLSKADYEKHKVYACEVTHQGLSSPVTKSFNRGEC
notes: Mock mAb^2, IgG1 without LALA
Consider B3, for which the binding result in the assay with human CD40, with human GITR and with human OX40 was “no binding (tested: starting at 1 µM)” each time. The results for the equilibrium dissociation constant (Kd) with hCD137-mFc-Avi [1] and with cCD137-mFc-Avi were 1.5 nM and 1.3 nM, respectively. Moreover, the “Human monomeric CD137 KD fold difference relative to human dimeric KD” value with hCD137-Avi-His was above 200 fold. Further, in [7], the “NF-kB signalling, HEK.FRT.luc.hCD137, +XL (EC50 nM)” value was 32.6 nM.

B4: FS22-172-004/HelD1.3 (bispecific antibody, human IgG1, kappa)
heavy: QVQLQESGPGLVRPSQTLSLTCTVSGSTFSGYGVNWVRQPPGRGLEWIGMIWGDGNTDYNSALKSRVTMLVDTSKNQFSLRLSSVTAADTAVYYCARERDYRLDYWGQGSLVTVSSASTKGPSVFPLAPSSKSTSGGTAALGCLVKDYFPEPVTVSWNSGALTSGVHTFPAVLQSSGLYSLSSVVTVPSSSLGTQTYICNVNHKPSNTKVDKKVEPKSCDKTHTCPPCPAPELLGGPSVFLFPPKPKDTLMISRTPEVTCVVVDVSHEDPEVKFNWYVDGVEVHNAKTKPREEQYNSTYRVVSVLTVLHQDWLNGKEYKCKVSNKALPAPIEKTISKAKGQPREPQVYTLPPSRDELNYIYPPYNQVSLTCLVKGFYPSDIAVEWESNGQPENNYKTTPPVLDSDGSFFLYSKLTVGADRWLEGNVFSCSVMHEALHNHYTQKSLSLSPG
light: DIQMTQSPASLSASVGETVTITCRASGNIHNYLAWYQQKQGKSPQLLVYNAKTLADGVPSRFSGSGSGTQYSLKINSLQPEDFGSYYCQHFWSTPRTFGGGTKLEIKRTVAAPSVFIFPPSDEQLKSGTASVVCLLNNFYPREAKVQWKVDNALQSGNSQESVTEQDSKDSTYSLSSTLTLSKADYEKHKVYACEVTHQGLSSPVTKSFNRGEC
notes: Mock mAb^2, IgG1 without LALA
Take B4: the binding result in the assay with human CD40, in the assay with human GITR and in the assay with human OX40 was “no binding (tested: starting at 1 µM)” throughout. Moreover, the equilibrium dissociation constant (Kd) with hCD137-mFc-Avi [1] was determined as 4.3 nM; with cCD137-mFc-Avi it was 3.5 nM. The “Human monomeric CD137 KD fold difference relative to human dimeric KD” value with hCD137-Avi-His is above 200 fold. For the same molecule, the “NF-kB signalling, HEK.FRT.luc.hCD137, +XL (EC50 nM)” value in [7] is 124 nM.
